In article PMC7907806, “Ancestral lysosomal enzymes with increased activity harbor therapeutic potential for treatment of Hunter syndrome” (iScience, 2021):

Target: recombinant human mannose-6-phosphate receptor (M6PR) (human, UniProt P11717 41-2491)
Experiment: SPR; Biacore T200, single cycle kinetics mode; IDS enzymes co-expressed with HsFGE on recombinant human M6P receptor; who was immobilised is not given in the source
Settings: both partners purified

| Kd | Binder |
| --- | --- |
| 26 nM | IDS-A3, reconstructed ancestral iduronate-2-sulfatase (last common ancestor of primates and rodents), co-expressed with HsFGE (enzyme, cysteine 84 post-translationally modified to formylglycine (fGly); N-linked glycans) SETQANSTTDALNVLLIIVDDLRPSLGCYGDKLVRSPNIDQLASHSLLFQNAFAQQAVCAPSRVSFLTGRRPDTTRLYDFNSYWRVHAGNFSTIPQYFKENGYVTMSVGKVFHPGISSNHSDDSPYSWSFPPYHPSSEKYENTKTCRGPDGELHANLLCPVDVADVPEGTLPDKQSTEQAIRLLEKMKTSASPFFLAVGYHKPHIPFRYPKEFQKLYPLENITLAPDPQVPDGLPPVAYNPWMDIRQREDVQALNISVPYGPIPVDFQRKIRQSYFASVSYLDTQVGHLLSALDDLQLANSTIVAFTSDHGWALGEHGEWAKYSNFDVTTRVPLMFYVPGRTAPLPEAGEKLFPYLDPFDSASELMEPGRQTMDLVELVSLFPTLAGLAGLQVPPRCPVPSFHVELCREGQNLLKHFRFHDLEEDPHLHGNPRELIAYSQYPRPADSPQWNSDKPSLKDIKIMGYSIRTIDYRYTVWVGFNPDEFLANFSDIHAGELYFVDSDPLQDHNMYNDSQGGDLPQSLMP |
| 46 nM | IDS-A3_T354A, variant of ancestral IDS-A3 with the reversed mutation at position 354, co-expressed with HsFGE (enzyme, cysteine 84 post-translationally modified to formylglycine (fGly); N-linked glycans) SETQANSTTDALNVLLIIVDDLRPSLGCYGDKLVRSPNIDQLASHSLLFQNAFAQQAVCAPSRVSFLTGRRPDTTRLYDFNSYWRVHAGNFSTIPQYFKENGYVTMSVGKVFHPGISSNHSDDSPYSWSFPPYHPSSEKYENTKTCRGPDGELHANLLCPVDVADVPEGTLPDKQSTEQAIRLLEKMKTSASPFFLAVGYHKPHIPFRYPKEFQKLYPLENITLAPDPQVPDGLPPVAYNPWMDIRQREDVQALNISVPYGPIPVDFQRKIRQSYFASVSYLDTQVGHLLSALDDLQLANSTIVAFTSDHGWALGEHGEWAKYSNFDVATRVPLMFYVPGRTAPLPEAGEKLFPYLDPFDSASELMEPGRQTMDLVELVSLFPTLAGLAGLQVPPRCPVPSFHVELCREGQNLLKHFRFHDLEEDPHLHGNPRELIAYSQYPRPADSPQWNSDKPSLKDIKIMGYSIRTIDYRYTVWVGFNPDEFLANFSDIHAGELYFVDSDPLQDHNMYNDSQGGDLPQSLMP |
| 32 nM | human iduronate-2-sulfatase (hIDS), co-expressed with human formylglycine-generating enzyme (HsFGE) (enzyme, cysteine 84 post-translationally modified to formylglycine (fGly); N-linked glycans, iduronate-2-sulfatase (IDS), human; 550-residue protein; also called human IDS; hIDS + HsFGE) SETQANSTTDALNVLLIIVDDLRPSLGCYGDKLVRSPNIDQLASHSLLFQNAFAQQAVCAPSRVSFLTGRRPDTTRLYDFNSYWRVHAGNFSTIPQYFKENGYVTMSVGKVFHPGISSNHTDDSPYSWSFPPYHPSSEKYENTKTCRGPDGELHANLLCPVDVLDVPEGTLPDKQSTEQAIQLLEKMKTSASPFFLAVGYHKPHIPFRYPKEFQKLYPLENITLAPDPEVPDGLPPVAYNPWMDIRQREDVQALNISVPYGPIPVDFQRKIRQSYFASVSYLDTQVGRLLSALDDLQLANSTIIAFTSDHGWALGEHGEWAKYSNFDVATHVPLIFYVPGRTASLPEAGEKLFPYLDPFDSASQLMEPGRQSMDLVELVSLFPTLAGLAGLQVPPRCPVPSFHVELCREGKNLLKHFRFRDLEEDPYLPGNPRELIAYSQYPRPSDIPQWNSDKPSLKDIKIMGYSIRTIDYRYTVWVGFNPDEFLANFSDIHAGELYFVDSDPLQDHNMYNDSQGGDLFQLLMP |
